According to paper PMC11898529, “The LSmAD Domain of Ataxin-2 Modulates the Structure and RNA Binding of Its Preceding LSm Domain”:

How the values were obtained:
LSm domain of Ataxin-2 [1] = molecular target: T1, LSm domain of Ataxin-2 (UniProt Q99700 242-344); experiment: SHAPE footprinting; AU- and GU-rich protected (AU more than with M2); CA-rich unchanged; EMSA: 10 mM Tris pH 8.0, 25 mM KCl, 10 mM NaCl, 1 mM MgCl2, 10% glycerol, 0.5 mM DTT, 20 min, 25 C; SEC and SHAPE buffers not in material; conditions: protein: recombinant; tags: His tag (pET-22b(+), NdeI/XhoI)
T1 sequence (Q99700 242-344): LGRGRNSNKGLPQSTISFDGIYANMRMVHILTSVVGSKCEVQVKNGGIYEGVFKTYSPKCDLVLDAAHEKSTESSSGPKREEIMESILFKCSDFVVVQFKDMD

[2] = molecular target: T2, LSm-LSmAD M2 mutant of Ataxin-2 (UniProt Q99700 242-475, S315Q;S317T); experiment: SHAPE footprinting; AU- and GU-rich protected (GU more than with LSm); CA-rich unchanged; EMSA: 10 mM Tris pH 8.0, 25 mM KCl, 10 mM NaCl, 1 mM MgCl2, 10% glycerol, 0.5 mM DTT, 20 min, 25 C; SEC and SHAPE buffers not in material; conditions: protein: recombinant
T2 sequence (Q99700 242-475 S315Q/S317T): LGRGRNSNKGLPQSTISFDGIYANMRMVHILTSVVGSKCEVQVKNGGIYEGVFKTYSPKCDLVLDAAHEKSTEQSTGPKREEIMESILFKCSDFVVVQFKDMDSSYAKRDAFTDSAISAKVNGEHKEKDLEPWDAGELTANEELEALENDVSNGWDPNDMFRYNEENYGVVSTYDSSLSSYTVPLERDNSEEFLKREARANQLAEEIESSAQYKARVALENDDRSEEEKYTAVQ

[3] = molecular target: T2, LSm-LSmAD M2 mutant of Ataxin-2; experiment: EMSA; fully shifted at protein/RNA molar ratio 20; moderate affinity; 1 mM MgCl2; EMSA: 10 mM Tris pH 8.0, 25 mM KCl, 10 mM NaCl, 1 mM MgCl2, 10% glycerol, 0.5 mM DTT, 20 min, 25 C; SEC and SHAPE buffers not in material; conditions: protein: recombinant; single strand with flanking hairpins
LSm domain of Ataxin-2 [4] = molecular target: T1, LSm domain of Ataxin-2; experiment: size-exclusion chromatography; EMSA: 10 mM Tris pH 8.0, 25 mM KCl, 10 mM NaCl, 1 mM MgCl2, 10% glycerol, 0.5 mM DTT, 20 min, 25 C; SEC and SHAPE buffers not in material; conditions: protein: recombinant, tags: His tag (pET-22b(+), NdeI/XhoI), single strand with flanking hairpins
LSmAD domain of Ataxin-2 = LSmAD domain of Ataxin-2 (UniProt Q99700 353-475); experiment: EMSA; protein/RNA molar ratio up to 6; 1 mM MgCl2; EMSA: 10 mM Tris pH 8.0, 25 mM KCl, 10 mM NaCl, 1 mM MgCl2, 10% glycerol, 0.5 mM DTT, 20 min, 25 C; SEC and SHAPE buffers not in material; conditions: protein: recombinant, tags: His tag, single strand with flanking hairpins
Chain of LSmAD domain of Ataxin-2 (Q99700 353-475): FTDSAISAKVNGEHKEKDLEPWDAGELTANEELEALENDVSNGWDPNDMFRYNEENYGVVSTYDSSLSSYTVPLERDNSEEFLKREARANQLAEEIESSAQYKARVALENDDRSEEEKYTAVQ

[5] = molecular target: T2, LSm-LSmAD M2 mutant of Ataxin-2; experiment: SHAPE footprinting; AU-, GU-, CU-rich protected, more than with LSm; CA-rich unchanged; EMSA: 10 mM Tris pH 8.0, 25 mM KCl, 10 mM NaCl, 1 mM MgCl2, 10% glycerol, 0.5 mM DTT, 20 min, 25 C; SEC and SHAPE buffers not in material; conditions: protein: recombinant
LSm domain of Ataxin-2 [6] = molecular target: T1, LSm domain of Ataxin-2; experiment: SHAPE footprinting; AU-, GU-, CU-rich protected, less than with M2; CA-rich unchanged; EMSA: 10 mM Tris pH 8.0, 25 mM KCl, 10 mM NaCl, 1 mM MgCl2, 10% glycerol, 0.5 mM DTT, 20 min, 25 C; SEC and SHAPE buffers not in material; conditions: protein: recombinant; tags: His tag (pET-22b(+), NdeI/XhoI)
[7] = molecular target: T2, LSm-LSmAD M2 mutant of Ataxin-2; experiment: SHAPE footprinting; GU-, AU-, CU-rich protected (CU most); CA-rich unchanged; EMSA: 10 mM Tris pH 8.0, 25 mM KCl, 10 mM NaCl, 1 mM MgCl2, 10% glycerol, 0.5 mM DTT, 20 min, 25 C; SEC and SHAPE buffers not in material; conditions: protein: recombinant
LSm domain of Ataxin-2 [8] = molecular target: T1, LSm domain of Ataxin-2; experiment: as above; conditions: protein: recombinant; tags: His tag (pET-22b(+), NdeI/XhoI)

B1: RE1 (structured_RNA)
RNA: GGCCUUCGGGCCAAAUUUAUUUAUUUAUUUAUUUAGCUGACGAUCCACACACACAGGAAUCGACUCUGUUUGUUUGUGUUUGUUUGUACUGAAUUGGCACUUUUCCCCUUUUCCCUUUCUGGACUGGCAUCGAUCCGGUUCGCCGGAUCCAAAUCGGGCUUCGGUCCGGUUC
- binding result (LSm domain of Ataxin-2 [1]): binds
- binding result [2]: binds

B2: AU-rich RNA (structured_RNA)
RNA: GGCCUUCGGGCCAAAUUUUUAUUUUUAUUUUUAUUUUUAUUUUUUCGAUCCGGUUCGCCGGAUCCAAAUCGGGCUUCGGUCCGGUUC
- binding result [3]: binds
- binding result (LSm domain of Ataxin-2 [4]): binds
- binding result (LSmAD domain of Ataxin-2): no binding

B3: RE2 (structured_RNA)
RNA: GGCCUUCGGGCCAAAUUUAUUUAUUUAUUUAGCGAGAAGUUGUUUGUUUGUGUUUGACGUCUGUGUGGACGUCACACACAGGAUGCAUCGGACCUUUUCCCCUUUUCCCUUUUCGAUCCGGUUCGCCGGAUCCAAAUCGGGCUUCGGUCCGGUUC
- binding result [5]: binds
- binding result (LSm domain of Ataxin-2 [6]): binds

B4: RE5 (structured_RNA)
RNA: GGCCUUCGGGCCAAACCGUACACACACACAUGGCUAGACGGUAUGUUUGUUUGUUGUUUGUUUGUUGUUUGUUUGUGUUUGACGUAGGAAUUUAAUUUAAUUUAAUUUAAUUUAAUUUAAUUUACAGGCUACGUAGGCCAGGACCCCUCUUUUCUCCCCAGGACCCCUCUUUUCUCCCCAUUCACCCUCCCUUCUCCAGAGCGAUUCGAUCCGGUUCGCCGGAUCCAAAUCGGGCUUCGGUCCGGUUC
- binding result [7]: binds
- binding result (LSm domain of Ataxin-2 [8]): binds

B5: AC-rich RNA (structured_RNA)
RNA: GGCCUUCGGGCCAAACCCCCACCCCCACCCCCACCCCCACCCCCUCGAUCCGGUUCGCCGGAUCCAAAUCGGGCUUCGGUCCGGUUC
- binding result (LSm domain of Ataxin-2 [4]; two conformers in gel): no binding
- binding result (LSmAD domain of Ataxin-2; two conformers in gel): no binding
